This is an account of results in publication PMC11399441.

A short description of one data set: CHX chase, western blot. The note with it: control: untreated YTS-1 cells. (In general: Immunoblotting shows a protein as a band on a membrane.)
The nature of data set [1]: western blot, YTS-1 cells. Conditions: control: untreated YTS-1 cells.
Data set [2] can be described thus: IP and anti-ubiquitin western blot. The note with it: glycan lost; control: untreated YTS-1 cells.

As for “C1GalT1 (core1 β-1,3-galactosyltransferase, T-synthase): OSMI-1”, the degradation_or_half_life result in the data set “CHX chase, western blot” (glycan lost) was “decreases”. Besides, the expression_or_secretion entry in data set [1] (glycan lost) is reported as “decreases”. In addition, the “other: ubiquitination” value in data set [2] was “increases”.

Consider “C1GalT1 (core1 β-1,3-galactosyltransferase, T-synthase): PugNAc”, for which, in the data set “CHX chase, western blot” (glycan gained), the degradation_or_half_life result is on record as “increases”. Besides, the expression_or_secretion entry in data set [1] (glycan gained) is “increases”.
